Reference: patent US20130196923A1, “NOVEL PEPTIDES WHICH HAVE ANALGESIC EFFECTS AND WHICH INHIBIT ASIC CHANNELS” (CENTRE NATIONAL DE LA RESERCHE SCIENTIFIQUE-CNRS, published 2013)
Where a chain is given by its changes, count along the chain named. Where two headings read alike, the source gives them in different places.

Key:
[1] = target: rat homomeric ASIC1b channel (rat) (UniProt P55926)
[2] = target: rat homomeric ASIC1b channel (rat) (UniProt P55926); remark: listed apart in the source
[3] = target: rat heteromeric ASIC1a+ASIC1b channel (rat, UniProt P55926); test: cell-based or functional assay
[4] = target: human heteromeric ASIC1a+ASIC2a channel (human, UniProt P78348); test: cell-based or functional assay
[5] = target: rat heteromeric ASIC1a+ASIC2a channel (rat, UniProt P55926); test: cell-based or functional assay
[6] = target: human homomeric ASIC1a channel (human, UniProt P78348); test: cell-based or functional assay
[7] = target: rat homomeric ASIC1a channel (rat, UniProt P55926); test: cell-based or functional assay

ASICalgin-1 (π-Dp1) (peptide)
inhibition of the acid-evoked ASIC current, patch clamp whole cell, COS cells [1]: 650 nM

B1: ASICalgin-2 (π-Dp2) (peptide)
peptide: LKCFQHGKVVTCHRDMKFCYHNTGMPFRNLKLILQGCSSSCSETENNKCCSTDRCNK
inhibition of the acid-evoked ASIC current, patch clamp whole cell, COS cells [2]: 650 nM
inhibition of the acid-evoked ASIC current, patch clamp whole cell, COS cells [3]: 223 nM
inhibition of the acid-evoked ASIC current, patch clamp whole cell, COS cells [4]: 308 nM
inhibition of the acid-evoked ASIC current, patch clamp whole cell, COS cells [5]: 308 nM
inhibition of the acid-evoked ASIC current, patch clamp whole cell, COS cells [6]: 127 nM
inhibition of the acid-evoked ASIC current, patch clamp whole cell, COS cells [7]: 49 nM

B2: ASICalgin-1 (π-Dp1) (peptide)
peptide: B1 peptide with F4Y
inhibition of the acid-evoked ASIC current, patch clamp whole cell, COS cells [3]: 223 nM
inhibition of the acid-evoked ASIC current, patch clamp whole cell, COS cells [4]: 308 nM
inhibition of the acid-evoked ASIC current, patch clamp whole cell, COS cells [5]: 308 nM
inhibition of the acid-evoked ASIC current, patch clamp whole cell, COS cells [6]: 127 nM
inhibition of the acid-evoked ASIC current, patch clamp whole cell, COS cells [7]: 49 nM
